# Measurements from a protein production outcome set (Wang et al. 2014).
# Test: label from the status in PepcDB records
row,Sequence,protein production
1,MFAERRMNVQKKLKIMAARDRNRFRPLFEGDEEVDMLYLNCNVASRPSLSCDGLVCIPIPGWINVLNPSTGEFLRFSSGRDPRLINDFECVDSKFDVFPGFWTMGFGRDNVNGSYKIVRMLFDRHFENRYCQILDVNIGEWRKQRQPPYFVGYREKSACVNGSIYWSQALIRCKLLAFDLYSEEFRDVPTPPRSEICERSCQIVNLEDRLVLAVTYTTSLHWNVKIWSMDAHDGTRSITYSIRLFSKDMNSSIMNHFQLWFWTRPLAVSKRGNLFFHDNEKRL,failed
2,MLDPARSYDLIGDVHGCALTLEHLLDRLGYHKQAGVWRHPSRMAVFLGDIIDRGPRIRESLHIVHDMVEAGQALCIMGNHEFNALGWSTPAAEGSGKQFVREHTPRHARLIHETLTQFEQHPGDWHDFLQWFYELPLFVDAGRFRVVHACWDAGLIAPLRQQYPNGCIDREFLQSAAVPDSFACTAFDRLLRGTDMRLPHGLTMTSGDGLTRAFFRTKFWEDDPQTYGDIVFQPDALPEPVARTPLSPAEKNSLLRYGAEEPMLFVGHYWRSGKPAPIRPNLACLDYSAVLYGKLAAYRLDQETRLDPNKFVWVDVERPEVVRLEHHHHHH,failed
3,MGSSHHHHHHSSGRENLYFQGEPPPSVRREFPLKVRLSTGKDVRLSASLPDTVGQLKRQLHAQEGIEPSWQRWFFSGKLLTDRTRLQETKIQKDFVIQVIIN,not failed
4,MLDAILSNYLYYPSILAFLFGVLMGAKYRHKIGNIFGYLILTVVIAYFLKAFPYYDLLPLSCSYLSAVIGIIIGNRLFGGKMI,failed
5,MEETLATPDATRRSLSPSCSATVKSRAAGFERRTKRRLSETNASVREDREEAEEEEDEVKEKIEALQRIIPGGAALGVDALFEETAGYILSLQCQIKTIKVLTSFLQRIDQEDMKFGG,failed
6,MNNHQTPQATSPLAAWLCYLEHLHSQPIELGLERVKQVAERLDLLKPAPKIFTVAGTNGKGTTCCTLEAILLAAGLRVGVYSSPHLLRYTERVRIQGQELSEAEHSHSFAQIEAGRGDISLTYFEFGTLSALQLFKQAKLDVVILEVGLGGRLDATNIVDSDVAAITSIALDHTDWLGYDRESIGREKAGVFRGGKPAVVGEPDMPQSIADVAAELGAQLYRRDVAWKFSQQEPFDQQEPVDQQINGWHWQCGERQLTGLPVPNVPLANAATALAVLHYSELPLSDEAIRQGLQAASLPGRFQVVSEQPLLILDVAHNPHAARYLVNRLAQVINPVNASKQGKVRAVVGMLSDKDIAGTLACLSERVDEWYCAPLEGPRGASAGQLAEHLVSARQFSDVETAWRQAMQDADTQDVVIVCGSFHTVAHVMAALHL,not failed
7,MKRNTRLLFVVPAFFAIFAMACACQGGTAGKSFTNSTGSPGEMMLVMDDQYLGSPVGEAIYEAMTEVAPALNQNEPIMAVSRVSEKDFTGFLRYIRNVLQIDINPDIFTKTSLKYGYDQWANGQLVVLINSPATDSLTAYVESNKSAIQNLFIRHELFLFGQLWQKDCSADADQRVQRMFGYHINVPADILSHKEGKDFLWMSNNQMRRRKDFLVYTFPYRGASDLGLDRMVEVRDSVLKANIEGSDAGSYPVTERMLLKHRYVYPGDQKRGEVHGIWRMEGGQMMSGPFVAQAFVDGDRVVVVEGFVYHPNEKKRDLMRQMEAALYSMRPKAEKEFDPSIIRKARWTTLK,failed
8,MKLSATIAIILLNWNGWRDTVDCVESCRKLDYPNFRIVIVDNGSTDGSEAILRERFPDVELIQTGANLGFAGGNNAGIRHALVRGADYVWLLNNDTVVEPGALGALVRVAESDPRVGMVGSKIVYFDDPWLLWFAGAVIDPERPHRPFHRGLHERDTGQYDRVAETGYVTGCSLLARREMMAEVGMLDDDLFLYFEDADWSARAARAGWKLLYVPDSVVRHKESVSSGGAASPRLVYYTARNRLYFVRRNFPAKLAAALCYDLFEHVLVNVKKGRFPLAVAGCRGIRDFLAGKIGPMPLEHHHHHH,not failed
9,MERQQQQQQQLRNLRDFLLVYNRMTELCFQRCVPSLHHRALDAEEEACLHSCAGKLIHSNHRLMAAYVQLMPALVQRRIADYEAASAVPSVAAEQPGVSPSGS,not failed
10,MEALKRKIEEEGVVLSDQVLKVDSFLNHQIDPLLMQRIGDEFASRFAKDGITKIVTIESSGIAPAVMTGLKLGVPVVFARKHKSLTLTDNLLTASVYSFTKQTESQIAVSGTHLSDQDHVLIIDDFLANGQAAHGLVSIVKQAGASIAGIGIVIEKSFQPGRDELVKLGYRVESLARIQSLEEGKVSFVQEVHS,not failed
11,MLTNVVAVLLDGVHPFELGVVCEVFGIDRSDEGLPVYEFAVASAEGPTLRTHAGFSLRTEHGLERLETADLITLPAGNSYVSRGYPPELLDALRRAVDRGARLLSVCSGVFVLGAAGLLDGRRCAVHWHHADELARQYPKAIVEPDVLYVDEDPVITSAGTAAGIDACLHIVRKEQGPEVANAIARRMVVPPHRDGGQAQYIERPLPRSPCDTVGEVLVWMEQHLDEEVTVEQLAARAHMSPRTFARRFQQETGTTPYRWILRQRVLLAQRLLEVTDETMDAIAGRTGFGTAAALRHQFVRSLGTTPNAYRRTFRGPATGPLGLAG,failed
12,MMLYRYTQTKLAQIASELKQTGLWSATAPSVEAMASTAPFACDLMPFEQWLQFIFIPRMQALIDAGQALPSQIAIAPMAEHLWSEQAALAPLISTLNELDILLNEPRLEHHHHHH,not failed
13,MKPTMMTYINEEEEMCRVILADFQTNAEKLESLVKNGAKEWLILATGSSLNAAQSAKYYIENLADVRITIEEPFNHLYYEKLSSHLDLVIGISQSGQSTSTISALERVKKEASVPVVALTSDVTSEIAEFADITLDIGSGKERVGYVTKGFTATVLTLMLTGLHFAYKTVQIDETRFNNEISAFSRAIDAIPATIAETEAFYERWQEEFATAPKFTAIGYGPTVGTCKEFETKFSETVRVPSQGLDLEAFMHGPYLEVNPQHRIFFLETASAVTERLVLLRDYESKYTPFTYTVKFGKGEDDRTLVIPTDLDEYQAPFLMILPFQILAHHIAELKGNKLTERIYTDFGVAMKSKTKPGDYA,not failed
14,MERHVPEPTHTLEGWHVLHDFRLLDFARWFSAPLEAREDAWEELKGLVREWRELEEAGQGSYGIYQVVGHKADLLFLNLRPGLDPLLEAEARLSRSAFARYLGRSYSFYSVVELGSQEKPLDPESPYVKPRLTPRVPKSGYVCFYPMNKRRQGQDNWYMLPAKERASLMKAHGETGRKYQGKVMQVISGAQGLDDWEWGVDLFSEDPVQFKKIVYEMRFDEVSARYGEFGPFFVGKYLDEEALRAFLGL,not failed
15,EEAGRSATEIARAVAAVSAPIDLVAAGAAIDSGVNRLIYTRHFLRTMIPNALAKWQQHPGLFDRELVQRATTLREFDDAFTAPLHGFTGVDDYWTRASSKPHLHKITIPALVVNARNDPFVPAVSLPTQDEVGEMVTLWQPDEGGHVGFATGPWPGRIAAMPEAVSDWLGAV,failed
16,MAGHTDNEITIAAPMELVWNMTNDIEKWPGLFSEYASVEVLGRDDDKVTFRLTMHPDADGKVWSWVSERVADPVTRTVRAQRVETGPFQYMNIVWEYAETAEGTVMRWTQDFAMKPDAPVDDAWMTDNINRNSRTQMALIRDRIEQAAGERRTASVLADLEHHHHHH,not failed
17,MRIIKFPEQISEDIIHYTFLDDIISYNCEKCRGSCCHVNNSLLLDAKTASFLKRTYLKDFIVSDDSVSLLSCGKKCWFHSELGCTINDLGLNKPLTCELYPFHIKKIQNFYIVSFTPCPTFQLNLGEGQRYKDIEDVVLRYIKTGVPVFSPSLHVSEERLKYEIEYQNNFKNTLSEYYRTKTADGTTEFKEYEKWYIYYLDFRWGSIPLSYTSSQANQFWNLYKRVCEDVYKKISYIRTDNIYFIIANQFNKTISKHFQLNFIDKELEHHHHHH,not failed
18,MAEPRENLMDWLRDAHAMEQQAEQMLKAQAARIEHYPKLKARIEQHLEETLGQQRLVEASIERLGGSPSVVKDAMGKMAAFGQAMGGMTTSDEIVKGAMASYVFENLEIATYTALLGAAKTVGDVETQRMCEQILPQEEAMAKWLLEHLPELTEEFLVRDATPGVTAKK,failed
19,MQRANREHLEIISLEEISMLVSSDFDLPEVLQHVTAKVATQLKVSVCNIYLREGDEVVLAATHGFDPAFIGKIRIKIGDGITGSVARDGQYISLSRASQDPRYRYFPELQEEKYNSMLSFPIGDKKEVYGVINLNTTSIRSFHEDEIYFVSIIANLILTAIKLRQQVASSRKAAEA,not failed
20,MLAKSLGWLLAVSRRNYCMGSRTALASRPWSKHLADPQIDPTAYVHSFANVVGDVRIQPGVSVAPGSSIRADEGTPFWIGGNVLIQHGVVIHGLETGRVLGDDDQEYSVWIGPGTCVAHLALVHGPVYLGANCFIGFRSTVLNARVGDGAVVMMHSLVQDVEIPPNKLVPSGAMITQQHQADSLPDVQAGDRHFVQQIAAMHGQSASPTQGTDPTVCVLPESLPAVTPVTETPYINSIDNMSINSDITNQIRSLLAQGYGIGAEHANERRFKTKSWQSCGTADGFRPDQVIATVEGWLQEFAGEYVRLIGIDQGAKRRVVEVIIQRPGDVPGSPSRGTTTTKALSSGGSGRSAVAHQTGNLAGDSANQLRALLHQGYKIGLEYASARRFKTGSWLTGGTIGSHREGEALQELNRFLADHTNEYVRIIGIDPAGKRRVAEIVVHRPNGNGNGKPSSSSSSVGYKSAPVSSAGGSSAGGLTPEVIATVRGLLANGHSIGTEHTDKRRFKAKSWDTCPTIDGGREAEVLAKLEACLADHAGEYVRIIGIDRVGKRRVLEQIIQRPGDNVVAGRSPSSSSASTSSSASSNGFGSGNGGGYSNSAVRLDNSVVTQVRSLLAQGYKIGTEHTDKRRFKAKSWQSCAPITSTHESEVLRALEGCLADHNGEYVRLLGIDPTAKRRVLETIIQRP,failed
21,MSKKKSAAMTLKDFHGGSIPSDLPLPSAPGVTPKVIPDRPVFDRAPWGNSIGRPDQRARPSSSHAIRNLDDKSLFLPHNVNIGRNFSEDERKPLDGHSAPRRVVSDDVFRFANNRLEMKADSVLAGRHSGWAAGPLTHSGTGNIENSVSGNHSNIWNGRKEVSVANNEPGQSPWTKQPAVSNLVHTSALDQVSSGGWQSKLLVPSQMGFDVVKHSEIDTRVYKTNSPVISQGVEPHGTHVERALIAEDGIQRGKKLSREYEKIPGPTYVDAKEAKIVANTNDKPHPKYSDVKPAGHLVQPTAPSEVVERPKLNLLPRTKPLESVEKPVNDEKLENSASVLIQRENATQKSFNNSKSGLSTDEIPNQPAERPKLNLKPVAQLLEQPEVKTEKDRSAVFGGARPRELVLKERGIDEPEHHKLDQPTDRMVLKPIERVPEHASQRPVSSPRDMRTRKFDQKDGRNVSDIARSETQRRNWRENENKSARQQQQTQEKTRHPSPETWRKPVPQKLDSPNGTGIRHGKAASALELAQAYSPFSDPKSGIGSSNSFNKSRNNQTQQQPFSRLVGSTTTGRQINGY,failed
22,MSDKPTIEQLLNNVSIESLNDMQEDSLAANAKASDVILLSPTGSGKTLGFLLPVFQQLSVSSNSIQALVLVPSRELALQIESVFKSLKTGFKVTCCYGGHPMDVEENNLAQSPALLIGTPGRIVDHINRRNINLDDVKTLVLDEFDKSLEMGFQEDMAIIIGRLTGIKKRILTSATQAIKIPDFTGMQSPVTLNYITGQASGLSVKTVLSDTKDKFDTLLRLLCQIGNESVIVFCNQRDEVENVCAYLTEHGIINNNFHGGLEQRYRESTLTKFRNGSTNVLVTTDLAARGLDIPDVKHVIHYQMPHKIDAFTHRNGRTARMGSTGNAYMLLHKDVLLPDYITSKPDILKLSDQKVKPLLPQWETLFISAGKKDKINKIDIVGFLSKKGLLEKDELGLIEVKDQFAYAAVKRNKVESVIKLVKEEKIKGRKVKIEVARETPKFEAE,failed
